Assay: Stability of HRP in uric acid single reagent solution
Type: physicochemical
Settings: Uric Acid SR Model
Method: As in Example 2 Horseradish Peroxidase (HRP) was dissolved in an aqueous base containing 50 mg/ml BSA and 10 mg/ml Tris with no pH adjustment. HRP concentration was 30 mg/ml.
EDAC and PSL solutions were formed as in Example 2 as in relative concentrations of 100 mg/ml and 20 mg/ml. The PSL solution was added in an amount of 0.14 ml per 0.5ml of HRP solution dropwise over an ice bath. This was followed by the addition of the EDAC solution in an amount of 0.05 ml per 0.5 ml of HRP solution. The mixture was stored at 4°C for 4 days and evaluated for the stability of HRP in a uric acid single reagent solution.
This is reported in Table 4 where the Control 4 is the unmodified horseradish peroxidase.

Example 4: Horseradish Peroxidase (HRP) stabilized with PSL and EDAC
%HRP of 4°C (1 day at 4°C): 100%
%HRP of 4°C (1 day at 41°C): 70%
%HRP of 4°C (3 days at 4°C): 100%
%HRP of 4°C (3 days at 41°C): 35%

— patent EP0562624A2, “Stabilization of functional proteins” (Modrovich, Ivan E., priority 1992, dated 1993)
